# T1: DGI-2 polypeptide (UniProt Q15004 1-111, limits assumed)
# T1 construct: Soluble recombinant protein coated at 500 ng/well; vector tag of pIVEX2.3-MCS not described for this construct; also called KIAA0101
# T1 sequence (looked up): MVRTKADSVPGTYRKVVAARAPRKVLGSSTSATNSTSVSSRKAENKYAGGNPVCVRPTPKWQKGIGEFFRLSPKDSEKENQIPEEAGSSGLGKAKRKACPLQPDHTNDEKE
# B1: DGI-2-40F-4-F97 (peptide)
# peptide: QVGGMTQVGATVLSVVTGRGSCDGEDAWYPPGVTVGLGLCAAAGAPVPYPDPLEPRP
# B2: DGI-2-40F-3-C424 (peptide)
# peptide: TVKFQGVVQERSRIAGFRYCGDHAVSWGLAGCPALRDKLQAAAGAPVPYPDPLEPRP
# B3: DGI-2-40F-3-C8 (peptide)
# peptide: YGTAGLFLRRACTMSDPGDPLGRRGYTGWGVLWDEWVTGSAAAGAPVPYPDPLEPRP
# B4: DGI-2-40F-3-D1044 (peptide)
# peptide: DRVARLATPTAGTMAAGSLGYERTVGCDSQDWFRCVVEGLAAAGAPVPYPDPLEPRP
# Target: T2, antibody raised against ETAG
# T2 construct: Coated at 500 ng/well; also called E-tag antibody
# Assay: phage ELISA
# How it was run: (§1)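 Phage from individual clones were bound for 2 h at RT to wells coated with 500 ng DGI-2, LDH (non-specific), anti-E-tag antibody (positive control) or milk (negative control). Bound phage were detected with HRP-anti-M13 and ABTS at A405; positive clones gave ≥2-fold signal over background.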
row,Binder,ETAG (OD)
1,EGNWFCAVFRGFCVGDRGPEAAAGAPVPYPDPLEPRP [DGI-2-20R-3-A1],11.1
2,LPQSRWLSEAWASWVDGVVDAAAGAPVPYPDPLEPRP [DGI-2-20F-4-F9],19.6
3,RKGWGVFCIPGLRFCDWSDPAAAGAPVPYPDPLEPRP [DGI-2-20R-3-B4],17.4
4,GWGCSVPGILCVGGHRQGGGAAAGAPVPYPDPLEPRP [DGI-2-20R-3-B11],16.9
5,QMSRVAFSPGESWRRWVEGVAAAGAPVPYPDPLEPRP [DGI-2-20R-3-A2],14.2
6,B1,14
7,DGKHLTKWSGRGWWSAWVGGAAAGAPVPYPDPLEPRP [DGI-2-20R-3-B12],15.5
8,MGVVLECEGGWSIPGQTCYFAAAGAPVPYPDPLEPRP [DGI-2-20R-3-C7],18
9,B2,14.8
10,WGCVFRQWASGSGAGCARRHAAAGAPVPYPDPLEPRP [DGI-2-20R-3-D9],19.7
11,GGGRESWGGGWFMGWGSGAGAAAGAPVPYPDPLEPRP [DGI-2-20R-3-A6],17.7
12,WAASCFWGHVALGCGRNGQGAAAGAPVPYPDPLEPRP [DGI-2-20R-3-A11],14.7
13,VSFAHDWGRWWYQWEVGAAAGAPVPYPDPLEPRP [DGI-2-20R-4-G22],12.9
14,RSIRLQLIDEACQFFDGLCTAAAGAPVPYPDPLEPRP [DGI-2-20R-3-A8],15.3
15,FRMWVQSCFWGQPGTGCGEGAAAGAPVPYPDPLEPRP [DGI-2-20R-3-D2],14.3
16,RERWGTAWNLWTEGVVDVRPAAAGAPVPYPDPLEPRP [DGI-2-20F-3-B5],16.4

row,Binder,ETAG (OD)
1,B3,13.6
2,RRILPWSFPGCGRMCAAAGAPVPYPDPLEPRP [DGJ-2-20R-3-A10],16.4
3,QLDCLVWGLPGLRCDRPLEQAAAGAPVPYPDPLEPRP [DGI-2-20R-3-B10],17
4,WWERFVWGRPVDDGVVVMATAAAGAPVPYPDPLEPRP [DGI-2-20R-3-B1],14.5
5,SLECWAMPGMVVRLVGCDGPAAAGAPVPYPDPLEPRP [DGI-2-20R-4-H112],12.3
6,LFSATGCALMSGFCLGSDGSAAAGAPVPYPDPLEPRP [DGI-2-20R-3-C1],14
7,TIDVARRFGYGWWDLWLDGDAAAGAPVPYPDPLEPRP [DGI-2-20R-3-C3],20.2
8,VHSQGRMWAIPGLRGGTGASAAAGAPVPYPDPLEPRP [DGI-2-20R-3-D7],18.7
9,VLGADAGMIWFMDGCGIRCRAAAGAPVPYPDPLEPRP [DGI-2-20R-4-E6],19.1
10,DQRVVGSGWFERLRNWYDRAAAAGAPVPYPDPLEPRP [DGI-2-20R-4-G99],14.1
11,B4,17.7
12,RDTTSQWSWISRGWEFPGWRAAAGAPVPYPDPLEPRP [DGI-2-20R-3-C2],11.9
13,RDTMCGSVSWGIPGCEYSGMAAAGAPVPYPDPLEPRP [DGI-2-20R-4-G122],13.9
14,VVRQGCMAFSGLCSGVTESEAAAGAPVPYPDPLEPRP [DGI-2-20R-3-C8],21.1
15,SWACGLLWPGECGSQVARRGAAAGAPVPYPDPLEPRP [DGI-2-20R-3-D127],15.4

# Target: T1, DGI-2 polypeptide
# Assay: phage ELISA
# How it was run: as §1
Binder,DGI-2 (OD),DGI-2/LDH [ratio]
EGNWFCAVFRGFCVGDRGPEAAAGAPVPYPDPLEPRP [DGI-2-20R-3-A1],7.1,6.3
LPQSRWLSEAWASWVDGVVDAAAGAPVPYPDPLEPRP [DGI-2-20F-4-F9],5.6,5.9
RKGWGVFCIPGLRFCDWSDPAAAGAPVPYPDPLEPRP [DGI-2-20R-3-B4],8.4,8.6
GWGCSVPGILCVGGHRQGGGAAAGAPVPYPDPLEPRP [DGI-2-20R-3-B11],5.9,5.7
QMSRVAFSPGESWRRWVEGVAAAGAPVPYPDPLEPRP [DGI-2-20R-3-A2],7.5,7.5
B1,6.7,6.4
DGKHLTKWSGRGWWSAWVGGAAAGAPVPYPDPLEPRP [DGI-2-20R-3-B12],5.7,5.5
MGVVLECEGGWSIPGQTCYFAAAGAPVPYPDPLEPRP [DGI-2-20R-3-C7],5.1,5.1
B2,5.5,5.2
WGCVFRQWASGSGAGCARRHAAAGAPVPYPDPLEPRP [DGI-2-20R-3-D9],6.7,6.4
GGGRESWGGGWFMGWGSGAGAAAGAPVPYPDPLEPRP [DGI-2-20R-3-A6],5.8,5.9
WAASCFWGHVALGCGRNGQGAAAGAPVPYPDPLEPRP [DGI-2-20R-3-A11],6.2,5.7
VSFAHDWGRWWYQWEVGAAAGAPVPYPDPLEPRP [DGI-2-20R-4-G22],7.9,6.5
RSIRLQLIDEACQFFDGLCTAAAGAPVPYPDPLEPRP [DGI-2-20R-3-A8],6.9,6.4
FRMWVQSCFWGQPGTGCGEGAAAGAPVPYPDPLEPRP [DGI-2-20R-3-D2],7.9,7.5
RERWGTAWNLWTEGVVDVRPAAAGAPVPYPDPLEPRP [DGI-2-20F-3-B5],6.1,6.6

Binder,DGI-2 (OD),DGI-2/LDH [ratio]
B3,5.7,6
RRILPWSFPGCGRMCAAAGAPVPYPDPLEPRP [DGJ-2-20R-3-A10],6.2,5.9
QLDCLVWGLPGLRCDRPLEQAAAGAPVPYPDPLEPRP [DGI-2-20R-3-B10],7.8,7.6
WWERFVWGRPVDDGVVVMATAAAGAPVPYPDPLEPRP [DGI-2-20R-3-B1],6.3,6.2
SLECWAMPGMVVRLVGCDGPAAAGAPVPYPDPLEPRP [DGI-2-20R-4-H112],6.6,6
LFSATGCALMSGFCLGSDGSAAAGAPVPYPDPLEPRP [DGI-2-20R-3-C1],8.2,8.3
TIDVARRFGYGWWDLWLDGDAAAGAPVPYPDPLEPRP [DGI-2-20R-3-C3],7.9,7
VHSQGRMWAIPGLRGGTGASAAAGAPVPYPDPLEPRP [DGI-2-20R-3-D7],5.2,5.3
VLGADAGMIWFMDGCGIRCRAAAGAPVPYPDPLEPRP [DGI-2-20R-4-E6],7,7
DQRVVGSGWFERLRNWYDRAAAAGAPVPYPDPLEPRP [DGI-2-20R-4-G99],7.5,7.2
B4,7.9,6.2
RDTTSQWSWISRGWEFPGWRAAAGAPVPYPDPLEPRP [DGI-2-20R-3-C2],6.2,5.8
RDTMCGSVSWGIPGCEYSGMAAAGAPVPYPDPLEPRP [DGI-2-20R-4-G122],7.6,7.1
VVRQGCMAFSGLCSGVTESEAAAGAPVPYPDPLEPRP [DGI-2-20R-3-C8],5.6,5.3
SWACGLLWPGECGSQVARRGAAAGAPVPYPDPLEPRP [DGI-2-20R-3-D127],6.7,6.4

# Target: T3, lactate dehydrogenase (LDH)
# T3 construct: Coated at 500 ng/well as non-specific target; also called LDH polypeptide
# Assay: phage ELISA
# How it was run: as §1
row,Binder,LDH (OD)
1,EGNWFCAVFRGFCVGDRGPEAAAGAPVPYPDPLEPRP [DGI-2-20R-3-A1],1.1
2,LPQSRWLSEAWASWVDGVVDAAAGAPVPYPDPLEPRP [DGI-2-20F-4-F9],1
3,RKGWGVFCIPGLRFCDWSDPAAAGAPVPYPDPLEPRP [DGI-2-20R-3-B4],1
4,GWGCSVPGILCVGGHRQGGGAAAGAPVPYPDPLEPRP [DGI-2-20R-3-B11],1
5,QMSRVAFSPGESWRRWVEGVAAAGAPVPYPDPLEPRP [DGI-2-20R-3-A2],1
6,B1,1
7,DGKHLTKWSGRGWWSAWVGGAAAGAPVPYPDPLEPRP [DGI-2-20R-3-B12],1
8,MGVVLECEGGWSIPGQTCYFAAAGAPVPYPDPLEPRP [DGI-2-20R-3-C7],1
9,B2,1.1
10,WGCVFRQWASGSGAGCARRHAAAGAPVPYPDPLEPRP [DGI-2-20R-3-D9],1
11,GGGRESWGGGWFMGWGSGAGAAAGAPVPYPDPLEPRP [DGI-2-20R-3-A6],1
12,WAASCFWGHVALGCGRNGQGAAAGAPVPYPDPLEPRP [DGI-2-20R-3-A11],1.1
13,VSFAHDWGRWWYQWEVGAAAGAPVPYPDPLEPRP [DGI-2-20R-4-G22],1.2
14,RSIRLQLIDEACQFFDGLCTAAAGAPVPYPDPLEPRP [DGI-2-20R-3-A8],1.1
15,FRMWVQSCFWGQPGTGCGEGAAAGAPVPYPDPLEPRP [DGI-2-20R-3-D2],1.1
16,RERWGTAWNLWTEGVVDVRPAAAGAPVPYPDPLEPRP [DGI-2-20F-3-B5],0.9

row,Binder,LDH (OD)
1,B3,0.9
2,RRILPWSFPGCGRMCAAAGAPVPYPDPLEPRP [DGJ-2-20R-3-A10],1.1
3,QLDCLVWGLPGLRCDRPLEQAAAGAPVPYPDPLEPRP [DGI-2-20R-3-B10],1
4,WWERFVWGRPVDDGVVVMATAAAGAPVPYPDPLEPRP [DGI-2-20R-3-B1],1
5,SLECWAMPGMVVRLVGCDGPAAAGAPVPYPDPLEPRP [DGI-2-20R-4-H112],1.1
6,LFSATGCALMSGFCLGSDGSAAAGAPVPYPDPLEPRP [DGI-2-20R-3-C1],1
7,TIDVARRFGYGWWDLWLDGDAAAGAPVPYPDPLEPRP [DGI-2-20R-3-C3],1.1
8,VHSQGRMWAIPGLRGGTGASAAAGAPVPYPDPLEPRP [DGI-2-20R-3-D7],1
9,VLGADAGMIWFMDGCGIRCRAAAGAPVPYPDPLEPRP [DGI-2-20R-4-E6],1
10,DQRVVGSGWFERLRNWYDRAAAAGAPVPYPDPLEPRP [DGI-2-20R-4-G99],1
11,B4,1.3
12,RDTTSQWSWISRGWEFPGWRAAAGAPVPYPDPLEPRP [DGI-2-20R-3-C2],1.1
13,RDTMCGSVSWGIPGCEYSGMAAAGAPVPYPDPLEPRP [DGI-2-20R-4-G122],1.1
14,VVRQGCMAFSGLCSGVTESEAAAGAPVPYPDPLEPRP [DGI-2-20R-3-C8],1.1
15,SWACGLLWPGECGSQVARRGAAAGAPVPYPDPLEPRP [DGI-2-20R-3-D127],1
